Laboratory results from patent US20230257472A1 (JIANGSU HENGRUI MEDICINE, published 2023).

Target: T1, His-tagged CD70 protein extracellular domain (His-TNC-CD70) (human)
T1 construct: Expressed in 293 cells; also called human His-TNC-CD70 antigen; human CD70 antigen
T1 chain: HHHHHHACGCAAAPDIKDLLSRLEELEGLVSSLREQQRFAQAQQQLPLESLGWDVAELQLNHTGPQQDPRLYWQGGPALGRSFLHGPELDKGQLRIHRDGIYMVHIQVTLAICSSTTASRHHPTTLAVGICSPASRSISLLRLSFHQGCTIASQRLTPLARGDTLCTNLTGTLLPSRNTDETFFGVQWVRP
Experiment: SPR Biacore T200, antibody captured by anti-human Fc, His-TNC-CD70 in flow, 1:1 model
Experimental: The affinity of the chimeric and humanized antibodies of the present disclosure for the human CD70 antigen was tested using a Biacore instrument. The procedures are as follows:
The human Fc capture molecules were covalently coupled to a CM5 biosensor chip (CAT #BR-1005-30, GE) according to the method described in the instructions of the human Fc capture kit (CAT #BR-1008-39, GE) for affinity capture of the antibodies to be tested. Then, a human His-TNC-CD70 antigen (set forth in SEQ ID NO: 1) flowed through the surface of the chip, and the reaction signal was detected in real time using a Biacore T200 instrument to obtain association and dissociation curves. After the dissociation was completed for each cycle, the biochip was washed and regenerated with a regeneration solution configured in the human antibody capture kit (GE). Data were fitted using a 1:1 model.

| Binder | Kd | koff | kon |
| --- | --- | --- | --- |
| huF4027 (antibody, human IgG1, kappa, V domains shown, Humanized IgG1) VH: EVQLVQSGAEVKKPGSSVKVSCKASGDTFPRYNMHWVRQAPGQGLEWMGAIFPGNGETSYNQNFKGRVTLTADKSTSTAYMELSSLRSEDTAVYYCARNSYYDYAWFTYWGQGTLVTVSS VL: DIVMTQSPDSLAVSLGERATINCRASKSVSSSGYSFMHWYQQKPGQPPKLLIYLASNLESGVPDRFSGSGSGTDFTLTISSLQAEDVAVYYCQHSREFPPTFGQGTKLEIKR | 33.5 pM | 9.13e-05 s⁻¹ | 2.73e+06 M⁻¹ s⁻¹ |
| huB1026 (antibody, human IgG1, kappa, V domains shown, Humanized IgG1) VH: EVQMVQSGAEVKKPGASVKVSCKASGYTFTTYNIHWVRQAPGQGLEWMGDIYPGNGDASYNQKFRDRVTMTRDTSTSTVYMELSSLRSEDTAVYYCATFSRFDGWFAYWGQGTLVTVSS VL: DIVMTQSPDSLAVSLGERATINCRASRSVSTSGYSYMHWYQQKPGQPPKLLIYLASNLESGVPDRFSGSGSGTDFTLTISSLQAEDVAVYYCQHSRELPYTFGGGTKVEIKR | 50.3 pM | 9.62e-05 s⁻¹ | 1.91e+06 M⁻¹ s⁻¹ |
| huB1025 (antibody, human IgG1, kappa, V domains shown, Humanized IgG1) VH: EVQLVQSGAEVKKPGASVKVSCKASGYTFTTYNIHWVRQAPGQGLEWMGDIYPGNGDASYNQKFRDRVTMTRDTSTSTVYMELSSLRSEDTAVYYCARFSRFDGWFAYWGQGTLVTVSS VL: DIVMTQSPDSLAVSLGERATINCRASRSVSTSGYSYMHWYQQKPGQPPKLLIYLASNLESGVPDRFSGSGSGTDFTLTISSLQAEDVAVYYCQHSRELPYTFGGGTKVEIKR | 46.2 pM | 0.000154 s⁻¹ | 3.33e+06 M⁻¹ s⁻¹ |
| huF4009 (antibody, human IgG1, kappa, V domains shown, Humanized IgG1) VH: EVQLVQSGAEVKKPGSSVKVSCKASGDTFPRYNMHWVRQAPGQGLEWMGAIFPGTGETSYNQNFKGRVTLTADKSTSTAYMELSSLRSEDTAVYYCARNSYYDYAWFTYWGQGTLVTVSS VL: DIVMTQSPDSLAVSLGERATINCRASKSVSSSGYSFMHWYQQKPGQPPKLLIYLADNLESGVPDRFSGSGSGTDFTLTISSLQAEDVAVYYCQHSREFPPTFGQGTKLEIKR | 45.5 pM | 0.000114 s⁻¹ | 2.51e+06 M⁻¹ s⁻¹ |
| huF4028 (antibody, human IgG1, kappa, V domains shown, Humanized IgG1) VH: EVQLVQSGAEVKKPGSSVKVSCKASGDTFPRYNMHWLKQAPGQGLEWMGAIFPGNGETSYNQNFKGRVTLTADKSTSTAYMELSSLRSEDTAVYYCARNSYYDYAWFTYWGQGTLVTVSS VL: DIVMTQSPDSLAVSLGERATINCRASKSVSSSGYSFMHWYQQKPGQPPKLLIYLASNLESGVPDRFSGSGSGTDFTLTISSLQAEDVAVYYCQHSREFPPTFGQGTKLEIKR | 41.2 pM | 0.000106 s⁻¹ | 2.56e+06 M⁻¹ s⁻¹ |
| huF4026 (antibody, human IgG1, kappa, V domains shown, Humanized IgG1) VH: EVQLVQSGAEVKKPGSSVKVSCKASGDTFPRYNMHWVRQAPGQGLEWMGAIFPGNGETSYNQNFKGRVTITADKSTSTAYMELSSLRSEDTAVYYCARNSYYDYAWFTYWGQGTLVTVSS VL: DIVMTQSPDSLAVSLGERATINCRASKSVSSSGYSFMHWYQQKPGQPPKLLIYLASNLESGVPDRFSGSGSGTDFTLTISSLQAEDVAVYYCQHSREFPPTFGQGTKLEIKR | 39.2 pM | 9.56e-05 s⁻¹ | 2.44e+06 M⁻¹ s⁻¹ |
| huF4025 (antibody, human IgG1, kappa, V domains shown, Humanized IgG1) VH: EVQLVQSGAEVKKPGSSVKVSCKASGGTFSRYNMHWVRQAPGQGLEWMGAIFPGNGETSYNQNFKGRVTITADKSTSTAYMELSSLRSEDTAVYYCARNSYYDYAWFTYWGQGTLVTVSS VL: DIVMTQSPDSLAVSLGERATINCRASKSVSSSGYSFMHWYQQKPGQPPKLLIYLASNLESGVPDRFSGSGSGTDFTLTISSLQAEDVAVYYCQHSREFPPTFGQGTKLEIKR | 40.3 pM | 8.68e-05 s⁻¹ | 2.15e+06 M⁻¹ s⁻¹ |
| huB7010 (antibody, human IgG1, kappa, V domains shown, Humanized IgG1) VH: EIQLVQSGSELKKPGASVKVSCKTSGYTFTNYGMNWVRQAPGQGLEWMGWINTYTGEPTYADEFKGRFVFSLETSVSTAYLQISSLKAEDTAVYYCARGDSFTTEILRNWYFDVWGQGTTVTVSS VL: DIQMTQSPSSLSASVGDRVTITCGASENIYGALNWYQQKPGKVPKLLIYGATNLADGVPSRFSGSGSGRDYTLTISSLQPEDVATYYCQNVLSTPWTFGGGTKVEIKR | 39.6 pM | 0.000172 s⁻¹ | 4.36e+06 M⁻¹ s⁻¹ |
| huB7014 (antibody, human IgG1, kappa, V domains shown, Humanized IgG1) VH: EVQLVQSGSELKKPGASVKVSCKASGYTFTNYGMNWVRQAPGQGLEWMGWINTYTGEPTYADEFKGRFVFSLDTSVSTAYLQISSLKAEDTAVYYCARGDSFTTEILRNWYFDVWGQGTTVTVSS VL: DIQMTQSPSSLSASVGDRVTITCGASENIYGALNWYQQKPGKSPKLLIYGATNLADGVPSRFSGSGSGRDYTLTISSLQPEDVATYYCQNVLSTPWTFGGGTKVEIKR | 37.1 pM | 0.000182 s⁻¹ | 4.92e+06 M⁻¹ s⁻¹ |
| huB7024 (antibody, human IgG1, kappa, V domains shown, Humanized IgG1) VH: EIQLVQSGSELKKPGASVKVSCKTSGYTFTNYGMNWVRQAPGQGLKWMGWINTYTGEPTYADEFKGRFVFSLETSVSTAYLQINSLKAEDTAVYYCARGDSFTTEILRNWYFDVWGQGTTVTVSS VL: DIQMTQSPSSLSASVGDRVTITCGASENIYGALNWYQRKPGKSPKLLIYGATNLADGVPSRFSGSGSGRQYTLTISSLQPEDVATYYCQNVLSTPWTFGGGTKVEIKR | 46.4 pM | 0.000205 s⁻¹ | 4.41e+06 M⁻¹ s⁻¹ |
| huB7020 (antibody, human IgG1, kappa, V domains shown, Humanized IgG1) VH: EVQLVQSGSELKKPGASVKVSCKASGYTFTNYGMNWVRQAPGQGLEWMGWINTYTGEPTYADEFKGRFVFSLDTSVSTAYLQISSLKAEDTAVYYCARGDSFTTEILRNWYFDVWGQGTTVTVSS VL: DIQMTQSPSSLSASVGDRVTITCGASENIYGALNWYQRKPGKSPKLLIYGATNLADGVPSRFSGSGSGRQYTLTISSLQPEDVATYYCQNVLSTPWTFGGGTKVEIKR | 27.6 pM | 0.000159 s⁻¹ | 5.76e+06 M⁻¹ s⁻¹ |
| huB7022 (antibody, human IgG1, kappa, V domains shown, Humanized IgG1) VH: EIQLVQSGSELKKPGASVKVSCKTSGYTFTNYGMNWVRQAPGQGLEWMGWINTYTGEPTYADEFKGRFVFSLETSVSTAYLQISSLKAEDTAVYYCARGDSFTTEILRNWYFDVWGQGTTVTVSS VL: DIQMTQSPSSLSASVGDRVTITCGASENIYGALNWYQRKPGKSPKLLIYGATNLADGVPSRFSGSGSGRQYTLTISSLQPEDVATYYCQNVLSTPWTFGGGTKVEIKR | 44.2 pM | 0.000195 s⁻¹ | 4.41e+06 M⁻¹ s⁻¹ |
| huB7012 (antibody, human IgG1, kappa, V domains shown, Humanized IgG1) VH: EIQLVQSGSELKKPGASVKVSCKTSGYTFTNYGMNWVRQAPGQGLKWMGWINTYTGEPTYADEFKGRFVFSLETSVSTAYLQINSLKAEDTAVYYCARGDSFTTEILRNWYFDVWGQGTTVTVSS VL: DIQMTQSPSSLSASVGDRVTITCGASENIYGALNWYQQKPGKVPKLLIYGATNLADGVPSRFSGSGSGRDYTLTISSLQPEDVATYYCQNVLSTPWTFGGGTKVEIKR | 25.7 pM | 0.000154 s⁻¹ | 5.99e+06 M⁻¹ s⁻¹ |
| huB7006 (antibody, human IgG1, kappa, V domains shown, Humanized IgG1) VH: EIQLVQSGSELKKPGASVKVSCKTSGYTFTNYGMNWVRQAPGQGLKWMGWINTYTGEPTYADEFKGRFVFSLETSVSTAYLQINSLKAEDTAVYYCARGDSFTTEILRNWYFDVWGQGTTVTVSS VL: DIQMTQSPSSLSASVGDRVTITCGASENIYGALNWYQQKPGKVPKLLIYGATNLADGVPSRFSGSGSGTDFTLTISSLQPEDVATYYCQNVLSTPWTFGGGTKVEIKR | 24.6 pM | 0.000158 s⁻¹ | 6.41e+06 M⁻¹ s⁻¹ |
| huB7008 (antibody, human IgG1, kappa, V domains shown, Humanized IgG1) VH: EVQLVQSGSELKKPGASVKVSCKASGYTFTNYGMNWVRQAPGQGLEWMGWINTYTGEPTYADEFKGRFVFSLDTSVSTAYLQISSLKAEDTAVYYCARGDSFTTEILRNWYFDVWGQGTTVTVSS VL: DIQMTQSPSSLSASVGDRVTITCGASENIYGALNWYQQKPGKVPKLLIYGATNLADGVPSRFSGSGSGRDYTLTISSLQPEDVATYYCQNVLSTPWTFGGGTKVEIKR | 34.7 pM | 0.000169 s⁻¹ | 4.87e+06 M⁻¹ s⁻¹ |
| huB7016 (antibody, human IgG1, kappa, V domains shown, Humanized IgG1) VH: EIQLVQSGSELKKPGASVKVSCKTSGYTFTNYGMNWVRQAPGQGLEWMGWINTYTGEPTYADEFKGRFVFSLETSVSTAYLQISSLKAEDTAVYYCARGDSFTTEILRNWYFDVWGQGTTVTVSS VL: DIQMTQSPSSLSASVGDRVTITCGASENIYGALNWYQQKPGKSPKLLIYGATNLADGVPSRFSGSGSGRDYTLTISSLQPEDVATYYCQNVLSTPWTFGGGTKVEIKR | 41.8 pM | 0.000185 s⁻¹ | 4.43e+06 M⁻¹ s⁻¹ |
| huB7018 (antibody, human IgG1, kappa, V domains shown, Humanized IgG1) VH: EIQLVQSGSELKKPGASVKVSCKTSGYTFTNYGMNWVRQAPGQGLKWMGWINTYTGEPTYADEFKGRFVFSLETSVSTAYLQINSLKAEDTAVYYCARGDSFTTEILRNWYFDVWGQGTTVTVSS VL: DIQMTQSPSSLSASVGDRVTITCGASENIYGALNWYQQKPGKSPKLLIYGATNLADGVPSRFSGSGSGRDYTLTISSLQPEDVATYYCQNVLSTPWTFGGGTKVEIKR | 46.4 pM | 0.000191 s⁻¹ | 4.12e+06 M⁻¹ s⁻¹ |
| huB7004 (antibody, human IgG1, kappa, V domains shown, Humanized IgG1) VH: EIQLVQSGSELKKPGASVKVSCKTSGYTFTNYGMNWVRQAPGQGLEWMGWINTYTGEPTYADEFKGRFVFSLETSVSTAYLQISSLKAEDTAVYYCARGDSFTTEILRNWYFDVWGQGTTVTVSS VL: DIQMTQSPSSLSASVGDRVTITCGASENIYGALNWYQQKPGKVPKLLIYGATNLADGVPSRFSGSGSGTDFTLTISSLQPEDVATYYCQNVLSTPWTFGGGTKVEIKR | 28.2 pM | 0.000157 s⁻¹ | 5.58e+06 M⁻¹ s⁻¹ |
